Test results published in patent US20030235860A1, “Interactions between AR, ER, TR2, and TR4” (priority 1999, published 2003).

T1: TR4 (Homo sapiens, UniProt P49116)
T1 construct: full-length AR and TR4 in eukaryotic expression vectors (pSG5AR and pCMXTR4) were co-transfected; expressed in transfected cells; host or cells: H1299, HepG2
T1 sequence (P49116 1-615 isoform P49116-2 N175S/W419R/A428G/K503N/L504W/A613V): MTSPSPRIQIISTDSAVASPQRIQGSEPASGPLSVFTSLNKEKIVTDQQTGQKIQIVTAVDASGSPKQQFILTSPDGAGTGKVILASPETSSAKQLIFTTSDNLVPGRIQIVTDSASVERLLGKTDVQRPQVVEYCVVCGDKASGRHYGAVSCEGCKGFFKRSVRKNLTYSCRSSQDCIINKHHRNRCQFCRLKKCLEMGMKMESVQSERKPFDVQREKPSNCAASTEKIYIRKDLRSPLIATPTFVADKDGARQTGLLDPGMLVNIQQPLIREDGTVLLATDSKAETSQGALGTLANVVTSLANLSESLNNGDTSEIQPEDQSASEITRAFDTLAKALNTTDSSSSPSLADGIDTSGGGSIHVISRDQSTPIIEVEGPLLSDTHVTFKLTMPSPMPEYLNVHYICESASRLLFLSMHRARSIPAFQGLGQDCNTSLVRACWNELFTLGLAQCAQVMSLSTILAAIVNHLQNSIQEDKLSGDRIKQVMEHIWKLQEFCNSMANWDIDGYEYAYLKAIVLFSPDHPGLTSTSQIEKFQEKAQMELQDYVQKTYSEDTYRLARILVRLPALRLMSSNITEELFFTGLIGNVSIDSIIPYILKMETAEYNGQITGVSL

T2: TR2 (Homo sapiens, UniProt P13056)
T2 sequence (P13056 1-603): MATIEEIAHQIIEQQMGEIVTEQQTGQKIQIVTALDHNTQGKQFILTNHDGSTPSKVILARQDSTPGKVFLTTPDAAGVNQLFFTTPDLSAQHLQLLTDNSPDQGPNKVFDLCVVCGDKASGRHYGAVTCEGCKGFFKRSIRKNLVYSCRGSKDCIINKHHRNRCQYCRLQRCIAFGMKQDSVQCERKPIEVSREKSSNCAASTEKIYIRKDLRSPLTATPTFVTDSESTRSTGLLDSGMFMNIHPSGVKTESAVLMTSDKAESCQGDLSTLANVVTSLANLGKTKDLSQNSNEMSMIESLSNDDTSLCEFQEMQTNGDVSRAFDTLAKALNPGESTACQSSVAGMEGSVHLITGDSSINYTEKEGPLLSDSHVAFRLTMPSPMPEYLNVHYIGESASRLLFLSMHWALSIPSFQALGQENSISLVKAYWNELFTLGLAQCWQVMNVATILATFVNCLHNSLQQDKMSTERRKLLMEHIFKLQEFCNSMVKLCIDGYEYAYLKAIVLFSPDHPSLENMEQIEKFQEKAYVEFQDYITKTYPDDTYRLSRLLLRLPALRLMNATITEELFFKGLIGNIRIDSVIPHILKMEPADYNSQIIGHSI

T3: TR4 orphan receptor (TR4), full-length (human, UniProt P49116 1-596)
T3 construct: Full-length TR4; 35S-labeled when in vitro translated, expressed from plasmids in the cell assays; also called pCMX-TR4; pCMV-TR4
T3 sequence: T1 sequence (P49116 1-615 isoform P49116-2 N175S/W419R/A428G/K503N/L504W/A613V)

B1: estrogen receptor (ER), full-length (receptor)
chain: MTMTLHTKASGMALLHQIQGNELEPLNRPQLKIPLERPLGEVYLDSSKPAVYNYPEGAAYEFNAAAAANAQVYGQTGLPYGPGSEAAAFGSNGLGGFPPLNSVSPSPLMLLHPPPQLSPFLQPHGQQVPYYLENEPSGYTVREAGPPAFYRPNSDNRRQGGRERLASTNDKGSMAMESAKETRYCAVCNDYASGYHYGVWSCEGCKAFFKRSIQGHNDYMCPATNQCTIDKNRRKSCQACRLRKCYEVGMMKGGIRKDRRGGRMLKHKRQRDDGEGRGEVGSAGDMRAANLWPSPLMIKRSKKNSLALSLTADQMVSALLDAEPPILYSEYDPTRPFSEASMMGLLTNLADRELVHMINWAKRVPGFVDLTLHDQVHLLECAWLEILMIGLVWRSMEHPVKLLFAPNLLLDRNQGKCVEGMVEIFDMLLATSSRFRMMNLQGEEFVCLKSIILLNSGVYTFLSSTLKSLEEKDHIHRVLDKITDTLIHLMAKAGLTLQQQHQRLAQLLLILSHIRHMSNKGMEHLYSMKCKNVVPLYDLLLEMLDAHRLHAPTSRGGASVEETDQSHLATAGSTSSHSLQKYYITGEAEGFPATV
notes: 35S-labeled when in vitro translated for the pull-downs; endogenous in MCF7 cells for the co-immunoprecipitation; also called ERα; pSG5-ER
B2: PR: progesterone receptor (protein)
chain: MTELKAKGPRAPHVAGGPPSPEVGSPLLCRPAAGPFPGSQTSDTLPEVSAIPISLDGLLFPRPCQGQDPSDEKTQDQQSLSDVEGAYSRAEATRGAGGSSSSPPEKDSGLLDSVLDTLLAPSGPGQSQPSPPACEVTSSWCLFGPELPEDPPAAPATQRVLSPLMSRSGCKVGDSSGTAAAHKVLPRGLSPARQLLLPASESPHWSGAPVKPSPQAAAVEVEEEDGSESEESAGPLLKGKPRALGGAAAGGGAAAVPPGAAAGGVALVPKEDSRFSAPRVALVEQDAPMAPGRSPLATTVMDFIHVPILPLNHALLAARTRQLLEDESYDGGAGAASAFAPPRSSPCASSTPVAVGDFPDCAYPPDAEPKDDAYPLYSDFQPPALKIKEEEEGAEASARSPRSYLVAGANPAAFPDFPLGPPPPLPPRATPSRPGEAAVTAAPASASVSSASSSGSTLECILYKAEGAPPQQGPFAPPPCKAPGASGCLLPRDGLPSTSASAAAAGAAPALYPALGLNGLPQLGYQAAVLKEGLPQVYPPYLNYLRPDSEASQSPQYSFESLPQKICLICGDEASGCHYGVLTCGSCKVFFKRAMEGQHNYLCAGRNDCIVDKIRRKNCPACRLRKCCQAGMVLGGRKFKKFNKVRVVRALDAVALPQPVGVPNESQALSQRFTFSPGQDIQLIPPLINLLMSIEPDVIYAGHDNTKPDTSSSLLTSLNQLGERQLLSVVKWSKSLPGFRNLHIDDQITLIQYSWMSLMVFGLGWRSYKHVSGQMLYFAPDLILNEQRMKESSFYSLCLTMWQIPQEFVKLQVSQEEFLCMKVLLLLNTIPLEGLRSQTQFEEMRSSYIRELIKAIGLRQKGVVSSSQRFYQLTKLLDNLHDLVKQLHLYCLNTFIQSRALSVEFPEMMSEVIAAQLPKILAGMVKPLLFHKK

Legend:
[1] = target: T4, interaction between AR and TR4 (Homo sapiens, UniProt P10275, DEL79-80/DUP473-473); experiment: Modified mammalian one-hybrid system pSG5AR / GAL4-TR4E; format: cell-based; conditions: 1 μM of anti androgen
T4 construct: A full-length AR(pSG5AR) was co-transfected with GAL4-TR4E; expressed in transfected cells; host or cells: H1299
T4 sequence (P10275 with tags, fused parts or gaps DEL79-80/DUP473-473): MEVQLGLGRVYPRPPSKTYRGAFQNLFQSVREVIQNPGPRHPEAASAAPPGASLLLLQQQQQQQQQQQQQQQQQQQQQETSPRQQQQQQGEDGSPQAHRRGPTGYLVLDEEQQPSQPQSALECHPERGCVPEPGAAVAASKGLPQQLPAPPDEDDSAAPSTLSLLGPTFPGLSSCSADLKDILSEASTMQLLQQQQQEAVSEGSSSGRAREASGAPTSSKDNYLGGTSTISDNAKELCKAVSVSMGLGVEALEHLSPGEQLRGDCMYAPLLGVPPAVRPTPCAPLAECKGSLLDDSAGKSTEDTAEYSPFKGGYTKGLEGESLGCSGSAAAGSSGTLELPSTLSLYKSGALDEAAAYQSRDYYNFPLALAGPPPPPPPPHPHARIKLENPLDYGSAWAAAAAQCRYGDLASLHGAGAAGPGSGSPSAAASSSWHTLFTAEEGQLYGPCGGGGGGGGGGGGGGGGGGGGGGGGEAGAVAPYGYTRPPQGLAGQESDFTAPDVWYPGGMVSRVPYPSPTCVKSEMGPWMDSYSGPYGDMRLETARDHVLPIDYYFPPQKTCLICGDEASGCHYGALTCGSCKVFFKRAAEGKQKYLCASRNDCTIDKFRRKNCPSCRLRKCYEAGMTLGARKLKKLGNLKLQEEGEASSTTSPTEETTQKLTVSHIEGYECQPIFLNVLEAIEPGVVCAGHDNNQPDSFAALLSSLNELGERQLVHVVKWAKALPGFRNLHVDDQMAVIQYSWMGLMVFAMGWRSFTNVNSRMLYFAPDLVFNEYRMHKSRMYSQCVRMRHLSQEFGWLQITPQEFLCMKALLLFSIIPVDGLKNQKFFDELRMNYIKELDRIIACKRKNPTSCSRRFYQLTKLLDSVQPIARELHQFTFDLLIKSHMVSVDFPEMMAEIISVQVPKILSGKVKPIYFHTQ
Protocol: A full-length AR(pSG5AR) was co-transfected with GAL4-TR4E and PG5-Luc reporter in H1299 cells (pSG5AR, pSG5GR, pSG5PR, disclosed in Yeh et al., Proc Natl. Acad. Sci., 93:5517-5521 (1996), which is herein incorporated by reference at least for material related to plasmids and assays, including sequence).
Transfection was performed by a modified calcium phosphate precipitation method. The pRL-TK plasmid was co-transfected for normalization of transfection efficiency.

TR4 = target: T1, TR4; experiment: TR4-mediated transactivation reporter assay; format: cell-based; conditions: H1299 cells; absence or presence of DHT
Protocol: Cells were routinely maintained in DMEM with 10% heat-inactivated fetal bovine serum. The cells were transfected using a modified calcium phosphate precipitation method, Mizokami, & Chang, J: Biol. Chem. 269,25655-25659 (1994), or SuperFect (Qiagen). To normalize the transfection efficiency, the (3-galactosidase expression ver and pRL-TK were co-transfected in CAT assay and in Dual-luciferase reporter assay system (Promega), respectively.
More specifically, 500 ng of reporter plasmids were co-transfected(DR4-CAT and CNTFR-15-LUC) with 200 ng of pCMX-TR4 and increasing amounts of pCMV-AR (200, 600, and 1,200 ng), pSG5GR (1,200 ng), or pSG5 PR (1,200 ng) using the SuperFect transfection kit (Qiagen) (PCMV AR Mowszowicz et al., (1993) Molecular Endocrinology 7:861:869). […] Similar results were obtained when the DR4-TK-CAT reporter was replaced with DR1-CNTFR-15-LUC, another TR4 response element (FIG. 3A). Young, et al., J: Biol. Chem. 272,3109-3116 (1997).
Another TR4 potential target gene, which is located in the hepatitis B virus (HBV) enhancer II region (−34 to −7) containing a classic DR1 motif. Breidbart, et al., Pediatric Res. 34,300-302 (1993), was investigated. The reporter plasmid CpFL(4)-LUC, which contains the HBV core promoter (Cp) sequence located between −34 and −7 (nucleotide coordinates 1751 and 1778 derived from the Genbank database) was shown above in FIG. 3B. The arrows indicate the DRI motif in HBV core promoter. HepG2 cells were co-transfected with 1.5 μg CpFL(4)-LUC reporter and 0.5 μg pCMX-TR4, with increasing amounts of pCMV-AR (0.5, 2.5, and 5 μg) by modified calcium phosphate precipitation method. The relative reporter gene activities were compared to the CAT activities (or luciferase activities) with vector alone. To normalize the transfection efficiency, the β-galactosidase expression vector and pRL-TK were co-transfected in the CAT assay and in the Dual-luciferase reporter assay system (Promega), respectively.

TR2 = target: T2, TR2; experiment: TR2-mediated transactivation reporter assay; format: cell-based; conditions: H1299 cells; absence or presence of E2
Protocol: Transfections and chloramphenicol acetyltransferase (CAT) assays were performed as described previously. Yeh, & Chang, Proc. Natl. Acad. Sci. 93, 5517-5521 (1996). Briefly, 4×10^5 cells were plated in 60-mm dishes and cultured for 24 h, and then the medium was changed to phenol red free DMEM with 5% charcoal-stripped FCS 2 h before transfection. The cells were co-transfected with TR2 and/or ER expression plasmids with 2 μg of TR2-TK-CAT reporter or 1 μg of ERE-CAT reporter gene plasmid, as indicated in the Figures, by using the calcium phosphate precipitation method. A β-gal actosidase expression plasmid, pCMV-β-gal, was transfected in all transfections as an internal control for normalizing transfection efficiency. The total amount of DNA was adjusted up to 10.5 μg with parent vectors, pSG5 or pCMV in each transcriptional activity assay. […] The cells were then harvested and whole cell extracts were used for CAT assay. The CAT activity was quantitated by Phosphorlmager (Molecular Dynamics). Data are presented as means±S.D. of at least three independent experiments.
The CAT reporter assay was used to study the potential consequence of the formation of heterodimers between the TR2 and ER. […] More specifically, H1299 cells were transiently cotransfected with 2 μg of DR4-TK-CAT reporter plasmid and 3 μg of TR2 expression plasmid together with increasing amounts of the ER expression vector. […] Cells were also transfected with internal control reporter plasmid, pCMV-β-gal, as an internal control for transfection efficiency. Luciferase activity was then analyzed following manufacturer's instructions (Promega). […] Similar results were obtained when the DR4-TK-CAT reporter with DR1-HBV-LUC were replaced, another TR2 response element (FIG. 7C).
This conclusion was further confirmed by using the chimera receptor, TR2-androgen receptor (AR) ARp-TR2, which was generated by swapping TR2 proximal box (P-box) with that found in the AR. […] Luciferase activity was then analyzed following manufacturer's instructions (Promega). […]

[2] = target: T3, TR4 orphan receptor (TR4), full-length; experiment: Table 4, summary of interactions tested; assay not given

Row | Molecule | Effect on DHT-enhanced interaction between AR and TR4 [1] | CAT activity induced by pCMXTR4 (DR4-TK-CAT; similar with DR1-CNTFR-I5-LUC) (TR4) | CAT activity induced by pCMV-TR2 (DR4-TK-CAT; similar with DR1-HBV-LUC) (TR2) | binding result [2]
1 | CC1(C)C(=O)N(c2ccc(C#N)c(C(F)(F)F)c2)C(=O)N1CCCCO [RU58841] | abolish | – | – | –
2 | CC(C)(O)C(=O)Nc1ccc([N+](=O)[O-])c(C(F)(F)F)c1 [hydroxyflutamide] | abolish | – | – | –
3 | GR: glucocorticoid receptor | – | no suppressive effects | no suppressive effect | –
4 | B1 | – | – | – | binds
5 | B2 | – | no suppressive effects | no suppressive effect | –
